The values below come from patent US20210301026A1 (ULTRAHUMAN TWELVE, published 2021).

The target in assay [1] is T1, cynomolgus monkey CSF1R human Fc tagged recombinant protein (cynomolgus monkey, UniProt P07333 20-517 (human entry), limits assumed).
T1 construct: also called cyno CSF1R-Fc
T1 chain: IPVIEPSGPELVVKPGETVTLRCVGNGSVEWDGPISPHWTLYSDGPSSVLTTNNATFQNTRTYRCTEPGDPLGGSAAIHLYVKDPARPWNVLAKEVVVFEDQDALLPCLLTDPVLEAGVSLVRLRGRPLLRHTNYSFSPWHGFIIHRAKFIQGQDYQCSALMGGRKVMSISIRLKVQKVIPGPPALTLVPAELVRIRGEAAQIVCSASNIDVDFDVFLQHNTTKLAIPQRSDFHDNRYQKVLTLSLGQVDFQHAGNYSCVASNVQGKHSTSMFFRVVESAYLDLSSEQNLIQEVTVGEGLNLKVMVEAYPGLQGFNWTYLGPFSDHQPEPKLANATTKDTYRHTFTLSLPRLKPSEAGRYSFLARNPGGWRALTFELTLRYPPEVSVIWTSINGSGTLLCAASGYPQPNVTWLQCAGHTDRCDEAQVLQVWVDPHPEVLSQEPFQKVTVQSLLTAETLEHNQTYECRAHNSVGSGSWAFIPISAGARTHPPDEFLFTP
Nature of the assay: direct titration ELISA on coated cyno CSF1R-Fc, IgG4(S228P) format, OD 450 nm. As for the experimental part: (§1) Binding and cross-reactivity of the lead panel to the recombinant proteins was initially assessed by binding ELISA. The human CSF1R human Fc tagged recombinant protein and the cynomolgus monkey CSF1R human Fc tagged recombinant protein were coated to the surface of MaxiSorp™ flat-bottom 96 well plate at 1 μg/ml. The purified IgG samples were titrated in two fold serial dilutions starting from 500 nM to 0.008 nM and allowed to bind to the coated antigens. The Fabs were detected using mouse anti-c-myc antibody followed by donkey anti-mouse IgG conjugated to horseradish peroxidase. The IgGs were detected using the mouse anti-human IgG conjugated to horseradish peroxidase. Binding signals were visualized with 3,3′,5,5′-Tetramethylbenzidine Substrate Solution (TMB) and the absorbance measured at 450 nm.
Background: ELISA stands for enzyme-linked immunosorbent assay.

For assay [2], the target named is T2, monomeric cynomolgus monkey CSF1R ectodomain protein (cynomolgus monkey, UniProt P07333 20-517 (human entry)).
T2 construct: also called monomeric cyno CSF1R; Cyno CSF1R
T2 chain: T1 chain
The assay is described as follows: SPR Biacore; KD on monomeric cyno CSF1R against KD of the same antibody on monomeric human CSF1R as reference. As for the experimental part:
Affinity (KD) of purified IgGs was determined via SPR with antigen in-solution on a Biacore 3000 (GE). A mouse anti-human antibody (CH1 specific) was immobilized on a CM5 Sensor Chip to a level of 2000 RU in acetate buffer at pH 4.5 using amine coupling following the Wizard instructions for two channels. One channel was used for background signal correction. The standard running buffer HBS-EP pH 7.4 was used. Regeneration was performed with a single injection of 10 μl of 10 mM Glycine at pH 1.5 at 20 μl/minute. IgG samples were injected for 2 minutes at 50 nM at 30 μl/min followed by and off-rate of 60 seconds. The monomeric ectodomain protein (human CSF1R or cynomolgus monkey CSF1R) was injected in two fold serial dilutions from 100 nM down to 3.1 nM, for 2 minutes at 30 μl/min followed by an off-rate of 300 seconds. The obtained sensorgrams were analysed using the Biacore 3000 evaluation (BIAevaluation) software. The KD was calculated by simultaneous fitting of the association and dissociation phases to a 1:1 Langmuir binding model.

A further assay deals with T3, human insulin (human, UniProt P01308 25-54; P01308 90-110, limits assumed).
T3 construct: Coated antigen of the polyreactivity ('PK-risk indicator') ELISA
The assay is described as follows: ELISA on human insulin (development risk, polyreactivity), binding score.

Assay [3] deals with T2, monomeric cynomolgus monkey CSF1R …. Nature of the assay: SPR Biacore, IgG captured, monomeric CSF1R analyte. For orientation: In SPR one partner is held on a chip, and binding of the other changes the refractive index at the surface.
The target in assay [4] is T4, monomeric human CSF1R ectodomain protein (human, UniProt P07333 20-517).
T4 construct: also called biotinylated monomeric human CSF1R
Nature of the assay: SPR Biacore, IgG captured, monomeric CSF1R analyte.

In assay [5] the target is T1, cynomolgus monkey CSF1R human Fc tagged …. Nature of the assay: direct titration ELISA on coated cyno CSF1R-Fc, IgG4(S228P) format, OD 450 nm. As for the experimental part: as §1
The target of assay [6] is T2, monomeric cynomolgus monkey CSF1R …. The assay is described as follows: SPR Biacore, IgG captured, monomeric CSF1R analyte.
The target in assay [7] is T4, monomeric human CSF1R ectodomain protein. Nature of the assay: SPR Biacore, IgG captured, monomeric CSF1R analyte. This is another data set of the same source.
The target is the same in assay [8]. Nature of the assay: AlphaScreen competition with mu0301 IgG4(S228P) for biotinylated monomeric human CSF1R. A general note: In Alpha technology, singlet oxygen from a donor bead excites a nearby acceptor bead.
Assay [9] addresses T5, human CSF1R, membrane-presented on cells (human, UniProt P07333 20-972).
T5 construct: HEK-293 cells transiently transfected with human CSF1R (flow cytometry); the native receptor on primary human monocytes in the proliferation assay; also called human CSF1R+ HEK-293 cells; CSF1R on primary human CD14+ monocytes
Nature of the assay: flow cytometry on HEK-293 cells expressing human CSF1R, MFI.

Read-outs that look alike come from different tables or passages of the source.

T3 sequence (P01308 25-54 limits assumed, chain 1 of 2): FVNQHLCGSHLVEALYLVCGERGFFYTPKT
T3 sequence (P01308 90-110 limits assumed, chain 2 of 2): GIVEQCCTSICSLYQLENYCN

B1: humanized anti-CSF1R antibody 0301 (hu0301) (antibody, human IgG4, V domains shown)
VH: QVQLVQSGAEVKKPGSSVKVSCKASGYTFTDNYMIWVRQAPGQGLEWMGDINPYNGGTTFNQKFKGRVTITADKSTSTAYMELSSLRSEDTAVYYCARESPYFSNLYVMDYWGQGTLVTVSS
VL: EIVLTQSPATLSLSPGERATLSCKASQSVDYDGDNYMNWYQQKPGQAPRLLIYAASNLESGIPARFSGSGSGTDFTLTISSLEPEDFAVYYCHLSNEDLSTFGGGTKVEIK
notes: also called mAb-1
For B1, the “EC50 (read off the curve)” value in [1] was around 0.07 nM; in assay [5], around 0.08 nM; in assay [9], around 1 nM. Moreover, the human/cyno affinity differential in assay [2] was above 3 fold. Also, the binding result with human insulin is reported as “no binding”. Further, the Kd in assay [3] was 0.66 nM; in [4] it was 0.21 nM; in assay [6], 0.66 nM; in assay [7] it was 0.21 nM. Besides, the koff came out at 0.00033 s⁻¹ in assay [3], 0.00047 s⁻¹ in [4], 0.00033 s⁻¹ in [6] and 0.00047 s⁻¹ in assay [7]. Moreover, the association rate constant (kon) in assay [3] is 500000 M⁻¹ s⁻¹; in [4], 2.3e+06 M⁻¹ s⁻¹; in assay [6], 500000 M⁻¹ s⁻¹; in assay [7], 2.3e+06 M⁻¹ s⁻¹. Moreover, the IC50 in assay [8] was found to be 2.38 nM.

A word on the EC50 (read off the curve): it is the concentration giving half of the maximal effect. One may read the Kd as the free concentration of one partner at which half of the binding sites on the other are occupied at equilibrium, for simple one-to-one binding. What is called koff is the first-order rate constant of dissociation. The term kon denotes the second-order rate constant of association. As a reminder, the IC50 is the midpoint of a concentration-inhibition curve.
